The results in this text go back to PMC5127641 (eLife, 2016).

“And” between values parts separate entries of the source, which are not always exact repeats. Equal values may be shown once.

The target in this test is M-CDP04 (αMCL1). As to the kind of experiment: BLI; biotinylated BCL2 homolog (25 nM) immobilised on streptavidin biosensors, designed protein in solution at defined concentrations; Octet RED96; 10 mM HEPES pH 7.4, 150 mM NaCl, 3 mM EDTA, 0.05% surfactant P20, 0.5% non-fat dry milk; titrations in triplicate, 1:1 binding model. The note with it: both partners purified. A general note: Biolayer interferometry detects binding as a change in optical thickness at a sensor tip.

B1: Bcl-B (natural protein)
chain: ADPLRERTELLLADYLGYCAREPGTPEPAPSTPEAAVLRSAAARLRQIHRSFFSAYLGYPGNRFELVALMADSVLSDSPGPTWGRVVTLVTFAGTLLERGPLVTARWKKWGFQPRLKEQEGDVARDCQRLVALLSSRLMGQHRAWLQAQGGWDGFCHFFRTPFPLA
modifications: biotin (enzymatic, BirA)
Take B1: the koff (in general, the rate constant with which the complex falls apart) is 0.199 s⁻¹ and 0.186 s⁻¹ and 0.148 s⁻¹ and 0.178 s⁻¹; the kon (commonly the rate constant with which the complex forms) was 5830 M⁻¹ s⁻¹ and 9300 M⁻¹ s⁻¹ and 13200 M⁻¹ s⁻¹ and 9440 M⁻¹ s⁻¹.
